B1: Thyroid receptor-interacting protein 6 (Homo sapiens), Q15654 (parent)
chain: MSGPTWLPPKQPEPARAPQGRAIPRGTPGPPPAHGAALQPHPRVNFCPLPSEQCYQAPGGPEDRGPAWVGSHGVLQHTQGLPADRGGLRPGSLDAEIDLLSSTLAELNGGRGHASRRPDRQAYEPPPPPAYRTGSLKPNPASPLPASPYGGPTPASYTTASTPAGPAFPVQVKVAQPVRGCGPPRRGASQASGPLPGPHFPLPGRGEVWGPGYRSQREPGPGAKEEAAGVSGPAGRGRGGEHGPQVPLSQPPEDELDRLTKKLVHDMNHPPSGEYFGQCGGCGEDVVGDGAGVVALDRVFHVGCFVCSTCRAQLRGQHFYAVERRAYCEGCYVATLEKCATCSQPILDRILRAMGKAYHPGCFTCVVCHRGLDGIPFTVDATSQIHCIEDFHRKFAPRCSVCGGAIMPEPGQEETVRIVALDRSFHIGCYKCEECGLLLSSEGECQGCYPLDGHILCKACSAWRIQELSATVTTDC

Common to all, as to conditions: with scrib_human SCRIB
The variants in assay [1] derive from B1.
Assay [2] covers variants of B1. This is another data set of the same source.
Variants of B1 are the subject of assay [3]. The source holds these as a separate data set.
Assay [4] covers variants of B1. The source holds these as a separate data set.

On to C476A, for which the “effect of a mutation on the interaction” value in assay [1] was “disrupting interaction”; in assay [2], “decreasing interaction”.
On to T474A, for which the “effect of a mutation on the interaction” value in assay [3] was “disrupting interaction”; in assay [4], “decreasing interaction”.

These data come from IntAct's records for PubMed 16137684.
